Target: T1, human propionyl-CoA carboxylase β subunit (human (endogenous in Expi 293F)), P05166
T1 chain: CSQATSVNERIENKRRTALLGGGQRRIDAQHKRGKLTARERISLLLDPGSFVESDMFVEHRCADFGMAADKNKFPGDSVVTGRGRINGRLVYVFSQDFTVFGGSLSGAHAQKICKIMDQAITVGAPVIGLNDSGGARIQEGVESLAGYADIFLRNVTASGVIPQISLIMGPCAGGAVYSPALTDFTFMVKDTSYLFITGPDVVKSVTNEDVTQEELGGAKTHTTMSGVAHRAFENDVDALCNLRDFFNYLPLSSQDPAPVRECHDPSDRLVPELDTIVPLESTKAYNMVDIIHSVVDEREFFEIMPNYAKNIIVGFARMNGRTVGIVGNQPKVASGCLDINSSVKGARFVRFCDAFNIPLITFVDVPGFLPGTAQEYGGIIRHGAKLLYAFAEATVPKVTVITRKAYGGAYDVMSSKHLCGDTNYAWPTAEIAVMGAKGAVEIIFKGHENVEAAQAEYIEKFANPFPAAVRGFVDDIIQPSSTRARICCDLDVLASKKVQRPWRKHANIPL
Assay: cryo-EM structure
Conditions: remark: other sources report otherwise

- stoichiometry N: 6
B1: human propionyl-CoA carboxylase β subunit, P05166 29-539 (natural protein)
chain: CSQATSVNERIENKRRTALLGGGQRRIDAQHKRGKLTARERISLLLDPGSFVESDMFVEHRCADFGMAADKNKFPGDSVVTGRGRINGRLVYVFSQDFTVFGGSLSGAHAQKICKIMDQAITVGAPVIGLNDSGGARIQEGVESLAGYADIFLRNVTASGVIPQISLIMGPCAGGAVYSPALTDFTFMVKDTSYLFITGPDVVKSVTNEDVTQEELGGAKTHTTMSGVAHRAFENDVDALCNLRDFFNYLPLSSQDPAPVRECHDPSDRLVPELDTIVPLESTKAYNMVDIIHSVVDEREFFEIMPNYAKNIIVGFARMNGRTVGIVGNQPKVASGCLDINSSVKGARFVRFCDAFNIPLITFVDVPGFLPGTAQEYGGIIRHGAKLLYAFAEATVPKVTVITRKAYGGAYDVMSSKHLCGDTNYAWPTAEIAVMGAKGAVEIIFKGHENVEAAQAEYIEKFANPFPAAVRGFVDDIIQPSSTRARICCDLDVLASKKVQRPWRKHANIPL
